From a protein production outcome set (Wang et al. 2014)

assay: label from the status in PepcDB records
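Also: failed if final PepcDB status was selected cloned or expressed and not failed if soluble or beyond.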

| Sequence | protein production |
| --- | --- |
| MEAFGGFVMDEQAIQVENVFLEFLKSFRLDANKPELYYEAEIEAIRGGESTMMYIDFSHVMGFNDALQKAIADEYLRFEPYLRNACKRFVIEMNPSFISDDTPNKDINVSFYNLPFTKRLRELTTAEIGKLVSVTGVVTRTSEVRPELLYGTFKCLDCGSVIKNVEQQFKYTQPTICVSPTCLNRARWALLRQESKFADWQRVRMQETSKEIPAGSLPRSLDVILRHEIVEQARAGDTVIFTGTVVVIPDISALAAPGERAECRRDSSQQKSSTAGHEGVQGLKALGVRDLSYRLAFIANSVQIADGSRNTDMRNRQNDSNEDDQQQFTAEELDEIQQMRNTPDYFNKLVGSMAPTVFGHQDIKRAVLLMLLGGVHKTTHEGINLRGDINVCIVGDPSCAKSQFLKYTAGIVPRSVYTSGKSSSAAGLTATVAKEPETGEFCIEAGALMLADNGICCIDEFDKMDIKDQVAIHEAMEQQTISITKAGIQATLNARTSILAAANPVGGRYDKSKPLKYNVNLPPAILSRFDLVYVMIDDPDEVTDYHIAHHIVRVHQKHEAALSPEFTTVQLKRYIAYAKTLKPKLSPEARKLLVESYVALRRGDTTPGTRVAYRMTVRQLEALIRLSEAIARSHLEILVKPSHVLLAVRLLKTSVISVESGDIDLSEYQDANGDNMDDTDDIENPVDGEEDQQNGAAEPASATADNGAAAQKLVISEEEYDRITQALVIRLRQHEETVNKDSSELPGIRQKELIRWFIDQQNEKKKYSSQEQVKLDIKKLRAIIESLVCKEGHLIVLANEQEEAAEAEETKKKSSQRDERILAVAPNYVIE | failed |
| MEAIFWLALALVAFTYAGYPLVLAVWDGAREALAAVRFVSGGDDRRGRATEGWPTVTLLFSAFDEEAWIRRKIENCLALDYPPDRLEILVGCDGCTDRTAEIAREVGGSRVKVHALSPRAGKASVLSRLVPQARGDLVVLTDANVMLERGALRALARRFREPGVGAVVGRLRLFNPTRREFEESLYWKYETAIKYYEGKHGCVLGANGGIYAIRRILFSPLPPDTIVDDFVIPVRIAARGWEVPFEPEAVAFEETTEDAGHEFGRRARIGAGNWQALARVPELLDPRTGFLCFAFVSHKLLRWSAPFLLAAAAVANGLLAAAPGAWGYRALLLAQAAFYGLALAGRHGAVGLRGPVRRLASLAHYFVAMNAALAVGLWRFLRRSQRAAWQRTERAGPSVPAA | failed |
| MEAITYKYYQEKYYGNILNEEDFKRYEKKARRKLSSFTFGRIDCLQNVPDEVGDCICDMAEKISLEESKENFSGIVSESTDGHSVTFEKKQSIEQMNKELYLIAVGYLNNTGLLYGGVCLCSTARNW | failed |
| MEAKQAAGALLTVVGVLLILYAIYSGFVNETIGSTEKFSADAAAMIVGWFAVLIGPALLFGETPAAVRKAAGR | failed |
| MEALDWLVIGVFFLALIGIIVWVVRQKQNDSADYFLGGRDATWLAIGASIFASNIGSEHLIGLAGAGASSGMAMAHWEIQGWMILILGWVFVPFYSRSMVYTMPEFLERRYNPQSRTILSVISLVSYVLTKVAVTVYAGGLVFQQVFGIKELWGIDFFWIAAIGLVVLTALYTIFGGMKSVLYTSVLQTPILLLGSLIILVLGFKELGGWDEMMRVCGAVTVNDYGDTMTNLIRSNDDANFPWLGALIGSAIIGFWYWCTDQFIVQRVLSGKNEKEARRGTIFGAYLKLLPVFLFLIPGMIAFALHQKYIGAGGEGFLPMLANGTANADAAFPTLVAKLLPAGVKGLVVCGILAALMSSLASLFNSSAMLFTIDFYKRFRPETPEKKLVGIGQIATVVIVILGILWIPIMRSVGDVLYTYLQDVQSVLAPGIAAAFLLGICWKRTSAQGGMWGLIAGMIIGLTRLGAKVYYSNAGEVADSTFKYLFYDMNWLFFCGWMFLFCIIVVIVVSLATEAPTAEKIQGLVFGTATKEQKAATRASWDHWDIIHTVIILAITGAFYWYFW | failed |
| MEASRNRSLVGNNRSPEMNENDGEDVAASAAVEDVEVWDTLSNGFKRAQLYLDQNRDLIQRVNENHMSRIPDNVSRNVGLINEINGNISQVMEIYSDLSLNFAKKFDQRRRTTKDGDTTTTTTGS | failed |
| MECDRISTLPDHLVAKIVSYLGIKDSIKTSVLSKRWEFVWLKVVGLDLKNCDFPPNGIASQMVVNKYMEFNSGLHMQYFKVNFGGNTVCTNRFLEWIATAVDRGVQHLDAENKNPVIIKEFMPKKIYKSKTLVSLKLAIKIFLKARHFISVFIVLQGQSIVQFSSRCGTFS | not failed |
| MECKTMERITVNLGERSYPISIGAGLFANPALLSLSAKQKVVIVTNHTVAPLYAPAIISLLDHIGCQHALLELPDGEQYKTLETFNTVMSFLLEHNYSRDVVVIALGGGVIGDLVGFAAACYQRGVDFIQIPTTLLSQVDSSVGGKTAVNHPLGKNMIGAFYQPKAVVIDTDCLTTLPAREFAAGMAEVIKYGIIYDSAFFDWLEAQMEALYALDEQALTYAIARCCQIKAEVVAQDEKESGIRALLNLGHTFGHAIEAHMGYGNWLHGEAVSAGTVMAAKTAQLQGLIDASQFERILAILKKAHLPVRTPENMTFADFMQHMMRDKKVLAGELRLVLPTSIGTSAVVKGVPEAVIAQAIEYCRTV | not failed |
| MECPFVSVVVGIRNEERYIEECIESLLRLDYPQDSYEIIIVDGMSTDRTRELVQKYPVRLLLNERKNVAAARNLGVQNSMGDFVAFTDGDCKADPLWLKTLVTEMKNAPEDVVCVGGPNLIFDTDPVFGRVVGHAQETFLGSGGSAQSKNSLKKHYVSSLPNCNAMYKKNTIIEAGYFDERFVVGQDGDLNYRINKKGYKFLYIPEAIVLHHRRGTLKSFSVRMFKYGMWMGELFKKHGELVRWYAILPSVAILFSVFSLIISPVYTTPIIVLLLMGFLYLILVFIASIQVIFKMKSKYGLYALVVIPVQHITYGMGFLYSFANSLYKSKGVSSSIVQN | failed |
| MEDGMNTFDLYYWPVPFRGQLIRGILAHCGCSWDEHDVDAIEGLMDCGAEKQPVAFMGPPVLIDRERNFAISQMPAIAIYLGERLDILPATVEGRTLSAKIVNDANDVLDELTLNGGREMWTPEKWQEFVPRLQKWIRIFADTGARNGLSAASGFMLGTEKIGVADIVTAILWTTVADRFPAIKGIIEDTSPIIWGLSRRVVATAPLAALNSKSFEEYGNAYCGGEIEKSLRKVAS | not failed |
| MEDIEYLDEYKDLVLPGIKSSAPTASSAGVPRQRRISSDSSNSSSIDADIFQKLFHGKYLDDELLKEGSGSKSQDRRRRPPSPSSSDESNDALEALFCGK | failed |
| MEDIIFGKRSNVFDVNPENTVFVLIAGTSEVSTVPGITSAGATPELTRLTPAIDSEIIGEGKCLSSKDPPMTPEGIPTPAIVTKAILSLTNIRYIIVNGGFYAKPKTPFIETGLKPSNNPAVKTAIEDLDAAIHAGEHIGRLLDGVFENIILAESVPGGTTTAYAVLKAIGINAKTSSSMKEDPFSIKEKIAEMSFRRKLEKSPLGAVKEYGDNMMAVSLGISSSVKRSKIIFGGGTQMATVMYLDRLINGMRDRYISTTGWVYYHRTELFSDLGLSDYLAVSAMDFSGMKHPGLRYYQYGHVREGTGMGAAFLLARLMNFEAEAIYKSVDDFYEQFI | failed |
| MEDLTASVTNRTVSLPLSCVTTDFGLGVIYASKNQESKTTREKPMLVTLNSSLEHTYQKDFKSLREILSRKVAWQTEAVNAISQIICGCKTDSTRRNQASGIWLALLGPDKVGKKKVAMTLSEVFFGGKVNYICVDFGAEHCSLDDKFRGKTVVDYVTGELSRKPHSVVLLENVEKAEFPDQMRLSEAVSTGKIRDLHGRVISMKNVIVVVTSGIAKDNATDHVIKPVKFPEEQVLSARSWKLQIKLGDATKFGVNKRKYELETAQRAVKVQRSYLDLNLPVNETEFSPDHEAEDRDAWFDEFIEKVDGKVTFKPVDFDELAKNIQEKIGSHFERCFGSETHLELDKEVILQILAASWSSLSSGEEEGRTIVDQWMQTVLARSFAEAKQKYGSNPMLGVKLVASSSGLASGVELPAKVDVIW | failed |
